From PMC6349918, “A five-residue motif for the design of domain swapping in proteins” (Nature Communications, 2019)
Numbering of substitutions follows the chain as printed.

Molecular target: the molecule itself
Assay: SEC; MK-Ctd and its loop variants; Superdex 75 10/300 GL; 20 mM Tris-HCl, 500 mM GdnHCl, pH 8; monomer to dimer

B1: L1MK-Ctd (MK-Ctd with QVVAG engineered into loop1) (domain or fragment)
chain: MVPSRFEDVRVVQVVAGWRVSVKIAETEEGEVVTVKAEFDECREIGEETGIPPREVKAMVEAAARVGGWVDLKEREIKVQEG
With B1 the “stoichiometry N” value was 2.

B2: L1MK-Ctd* (L1MK-Ctd with QVVAG mutated to QVNAG) (domain or fragment)
chain: B1 chain with V15N
For B2, the “stoichiometry N” value was 2.
